In patent US10562947B2, “Compositions and methods for preventing or treating diseases, conditions or processes characterized by aberrant fibroblast proliferation and extracellular matrix deposition” (MOERAE MATRIX, INC., priority 2011, dated 2020):

Assays:
Test in all cases: Kinase Profiling Assay
Assay type in all cases: biochemical
Details in all cases: 100 μM peptide
Rsk4(h) = Rsk4(h) (Homo sapiens, UniProt Q9UK32)
Procedure, shortened: (§1)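 Duplicate activity readings per kinase; peptide inhibitors of MK2 profiled against 266 human kinases for selectivity.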

MELK(h) = MELK(h) (Homo sapiens, UniProt Q14680)
Procedure, shortened: as §1

CDK6/cyclinD3(h) = CDK6/cyclinD3(h) (Homo sapiens, UniProt Q00534)
Procedure, shortened: as §1

SAPK3(h) = molecular target: T1, SAPK3(h) (Homo sapiens, UniProt P53778)
T1 sequence (P53778 1-367): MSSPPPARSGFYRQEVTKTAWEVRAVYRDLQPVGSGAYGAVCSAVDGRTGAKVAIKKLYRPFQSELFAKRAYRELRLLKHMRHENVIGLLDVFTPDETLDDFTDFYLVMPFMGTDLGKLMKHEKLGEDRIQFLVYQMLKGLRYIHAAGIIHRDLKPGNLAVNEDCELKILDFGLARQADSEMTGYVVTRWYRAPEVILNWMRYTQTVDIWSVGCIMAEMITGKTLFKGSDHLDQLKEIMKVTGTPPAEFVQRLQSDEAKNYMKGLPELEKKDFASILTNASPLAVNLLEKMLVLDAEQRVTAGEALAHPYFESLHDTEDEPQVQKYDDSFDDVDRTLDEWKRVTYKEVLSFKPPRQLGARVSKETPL
Procedure, shortened: as §1

CHK1(h) = molecular target: T2, CHK1(h) (Homo sapiens, UniProt O14757)
T2 sequence (O14757 1-476): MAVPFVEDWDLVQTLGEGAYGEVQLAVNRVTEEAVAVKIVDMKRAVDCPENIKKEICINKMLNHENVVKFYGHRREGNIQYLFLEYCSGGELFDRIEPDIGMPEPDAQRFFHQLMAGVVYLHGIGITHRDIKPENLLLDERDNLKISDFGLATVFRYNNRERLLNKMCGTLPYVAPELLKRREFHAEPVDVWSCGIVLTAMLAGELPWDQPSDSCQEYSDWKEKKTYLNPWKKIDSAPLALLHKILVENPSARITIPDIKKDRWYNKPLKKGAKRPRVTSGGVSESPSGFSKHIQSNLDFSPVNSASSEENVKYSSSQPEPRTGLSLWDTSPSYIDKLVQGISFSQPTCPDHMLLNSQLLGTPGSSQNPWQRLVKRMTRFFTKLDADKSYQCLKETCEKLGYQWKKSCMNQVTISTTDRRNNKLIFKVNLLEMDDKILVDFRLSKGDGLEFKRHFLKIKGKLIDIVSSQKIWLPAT
Procedure, shortened: as §1

F1t4(h) = F1t4(h) (Homo sapiens, UniProt P35916)
Procedure, shortened: as §1

IRAK4(h) = molecular target: T3, IRAK4(h) (Homo sapiens, UniProt Q9NWZ3)
T3 construct: purchased Millipore
T3 sequence (Q9NWZ3 1-460): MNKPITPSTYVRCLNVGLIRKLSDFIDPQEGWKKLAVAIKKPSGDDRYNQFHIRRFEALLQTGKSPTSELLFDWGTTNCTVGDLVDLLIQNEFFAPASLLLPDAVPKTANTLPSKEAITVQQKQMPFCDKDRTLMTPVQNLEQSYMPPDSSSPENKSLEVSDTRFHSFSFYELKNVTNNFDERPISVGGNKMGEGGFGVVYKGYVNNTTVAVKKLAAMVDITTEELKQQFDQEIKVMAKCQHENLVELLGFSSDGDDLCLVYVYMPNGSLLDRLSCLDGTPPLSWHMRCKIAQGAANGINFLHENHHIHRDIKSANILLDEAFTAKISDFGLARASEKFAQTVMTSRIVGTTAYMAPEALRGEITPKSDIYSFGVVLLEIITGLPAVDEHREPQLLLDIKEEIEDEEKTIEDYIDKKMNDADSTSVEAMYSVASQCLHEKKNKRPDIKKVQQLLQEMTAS
Procedure, shortened: as §1

PKBβ(h) = PKBβ(h) (Homo sapiens, UniProt P31751)
Procedure, shortened: as §1

Ron(h) = molecular target: T4, Ron(h) (Homo sapiens, UniProt Q04912)
T4 construct: purchased Millipore (IC50 Profiler Express service)
Procedure, shortened: as §1

Itk(h) = molecular target: T5, Itk(h) (Homo sapiens, UniProt Q08881)
T5 construct: purchased Millipore
T5 sequence (Q08881 1-620): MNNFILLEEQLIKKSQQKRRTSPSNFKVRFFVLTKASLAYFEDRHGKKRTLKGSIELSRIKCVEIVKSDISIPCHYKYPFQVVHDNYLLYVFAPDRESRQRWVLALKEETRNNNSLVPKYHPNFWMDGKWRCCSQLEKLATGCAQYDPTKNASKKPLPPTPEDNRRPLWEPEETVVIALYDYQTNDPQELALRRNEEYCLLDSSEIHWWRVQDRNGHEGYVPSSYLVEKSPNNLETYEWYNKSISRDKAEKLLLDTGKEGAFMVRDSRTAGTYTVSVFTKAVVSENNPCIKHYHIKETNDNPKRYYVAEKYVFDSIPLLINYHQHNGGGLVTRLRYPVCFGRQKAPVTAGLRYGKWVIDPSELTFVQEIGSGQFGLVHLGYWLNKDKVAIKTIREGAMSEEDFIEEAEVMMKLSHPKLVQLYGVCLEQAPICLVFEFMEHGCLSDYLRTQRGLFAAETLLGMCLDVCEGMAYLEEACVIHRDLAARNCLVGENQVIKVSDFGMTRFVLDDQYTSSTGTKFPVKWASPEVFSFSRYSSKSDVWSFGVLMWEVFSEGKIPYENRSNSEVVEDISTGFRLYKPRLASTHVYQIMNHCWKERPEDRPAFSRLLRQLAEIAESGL
Procedure, shortened: as §1

TSSK1(h) = molecular target: T6, TSSK1(h) (Homo sapiens, UniProt Q9BXA7)
T6 sequence (Q9BXA7 1-367): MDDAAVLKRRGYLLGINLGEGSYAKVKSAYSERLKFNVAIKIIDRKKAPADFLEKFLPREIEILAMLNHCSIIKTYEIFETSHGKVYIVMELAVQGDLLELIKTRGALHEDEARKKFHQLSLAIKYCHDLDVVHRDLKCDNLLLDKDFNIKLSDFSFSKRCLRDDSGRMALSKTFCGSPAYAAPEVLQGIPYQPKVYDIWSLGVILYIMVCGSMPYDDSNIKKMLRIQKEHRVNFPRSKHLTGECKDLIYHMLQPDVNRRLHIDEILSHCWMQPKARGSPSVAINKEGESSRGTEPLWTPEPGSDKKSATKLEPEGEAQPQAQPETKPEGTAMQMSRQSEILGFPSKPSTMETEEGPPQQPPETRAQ
Procedure, shortened: as §1

Chain of MELK(h) (Q14680 whole entry): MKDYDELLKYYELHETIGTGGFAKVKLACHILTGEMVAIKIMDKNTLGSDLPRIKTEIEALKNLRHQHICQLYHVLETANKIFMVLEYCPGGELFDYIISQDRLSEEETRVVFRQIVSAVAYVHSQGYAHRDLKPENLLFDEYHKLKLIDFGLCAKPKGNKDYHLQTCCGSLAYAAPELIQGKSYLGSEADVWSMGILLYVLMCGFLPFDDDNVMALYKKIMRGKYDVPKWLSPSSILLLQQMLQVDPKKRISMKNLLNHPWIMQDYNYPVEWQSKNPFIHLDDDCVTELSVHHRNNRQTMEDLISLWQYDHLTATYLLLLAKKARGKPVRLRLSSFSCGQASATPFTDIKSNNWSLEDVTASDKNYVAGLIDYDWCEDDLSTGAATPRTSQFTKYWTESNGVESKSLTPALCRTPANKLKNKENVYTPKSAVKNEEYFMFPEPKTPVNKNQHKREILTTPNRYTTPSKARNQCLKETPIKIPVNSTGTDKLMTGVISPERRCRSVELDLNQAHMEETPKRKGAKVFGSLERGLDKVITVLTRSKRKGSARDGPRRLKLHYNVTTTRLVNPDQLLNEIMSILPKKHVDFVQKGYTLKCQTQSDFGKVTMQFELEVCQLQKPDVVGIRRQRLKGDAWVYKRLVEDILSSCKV
Chain of F1t4(h) (P35916 25-1363): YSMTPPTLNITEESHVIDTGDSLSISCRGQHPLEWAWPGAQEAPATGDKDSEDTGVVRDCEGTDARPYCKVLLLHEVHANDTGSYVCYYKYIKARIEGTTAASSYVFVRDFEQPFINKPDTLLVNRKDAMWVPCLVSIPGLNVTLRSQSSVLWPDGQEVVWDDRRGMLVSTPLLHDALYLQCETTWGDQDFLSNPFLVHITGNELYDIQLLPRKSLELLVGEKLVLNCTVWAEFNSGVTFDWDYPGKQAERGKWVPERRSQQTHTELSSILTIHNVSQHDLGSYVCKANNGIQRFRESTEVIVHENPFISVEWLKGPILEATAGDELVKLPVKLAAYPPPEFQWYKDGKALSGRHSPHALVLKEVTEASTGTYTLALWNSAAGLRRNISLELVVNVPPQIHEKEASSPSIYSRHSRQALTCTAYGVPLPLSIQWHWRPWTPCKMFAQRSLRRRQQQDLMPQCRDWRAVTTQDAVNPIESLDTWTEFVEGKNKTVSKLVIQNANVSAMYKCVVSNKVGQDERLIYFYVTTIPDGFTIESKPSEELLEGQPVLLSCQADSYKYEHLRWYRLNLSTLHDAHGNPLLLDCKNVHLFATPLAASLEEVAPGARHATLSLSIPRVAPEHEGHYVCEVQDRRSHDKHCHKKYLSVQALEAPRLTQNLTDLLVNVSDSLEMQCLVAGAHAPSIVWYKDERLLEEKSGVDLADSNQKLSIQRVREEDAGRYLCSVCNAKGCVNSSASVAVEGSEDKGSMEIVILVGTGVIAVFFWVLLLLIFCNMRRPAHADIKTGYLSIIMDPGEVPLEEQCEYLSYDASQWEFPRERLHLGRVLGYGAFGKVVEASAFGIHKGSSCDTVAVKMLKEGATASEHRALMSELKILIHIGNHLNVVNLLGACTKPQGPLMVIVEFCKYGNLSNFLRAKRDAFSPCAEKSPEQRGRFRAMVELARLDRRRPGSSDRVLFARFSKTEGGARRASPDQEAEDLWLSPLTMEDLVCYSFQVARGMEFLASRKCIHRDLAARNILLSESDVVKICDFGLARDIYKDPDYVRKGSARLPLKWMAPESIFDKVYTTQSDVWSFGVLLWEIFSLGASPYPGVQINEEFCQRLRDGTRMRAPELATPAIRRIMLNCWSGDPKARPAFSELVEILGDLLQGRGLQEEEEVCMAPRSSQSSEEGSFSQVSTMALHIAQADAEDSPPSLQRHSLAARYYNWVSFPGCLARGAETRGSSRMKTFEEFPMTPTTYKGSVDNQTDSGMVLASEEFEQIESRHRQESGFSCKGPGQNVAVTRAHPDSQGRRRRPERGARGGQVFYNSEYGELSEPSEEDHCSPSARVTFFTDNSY
Chain of PKBβ(h) (P31751 whole entry): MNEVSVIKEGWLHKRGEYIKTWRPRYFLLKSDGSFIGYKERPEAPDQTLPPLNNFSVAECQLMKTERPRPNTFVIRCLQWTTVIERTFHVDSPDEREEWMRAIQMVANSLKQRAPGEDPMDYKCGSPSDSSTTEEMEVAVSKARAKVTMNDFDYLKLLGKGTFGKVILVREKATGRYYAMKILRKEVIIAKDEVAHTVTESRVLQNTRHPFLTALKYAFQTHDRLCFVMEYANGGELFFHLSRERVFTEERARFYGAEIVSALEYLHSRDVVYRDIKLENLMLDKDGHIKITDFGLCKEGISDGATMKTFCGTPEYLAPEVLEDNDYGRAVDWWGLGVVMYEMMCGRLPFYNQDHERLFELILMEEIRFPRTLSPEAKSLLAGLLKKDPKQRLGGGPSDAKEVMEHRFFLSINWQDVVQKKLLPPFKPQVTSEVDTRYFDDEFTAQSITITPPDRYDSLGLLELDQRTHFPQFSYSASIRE
Chain of Rsk4(h) (Q9UK32 whole entry): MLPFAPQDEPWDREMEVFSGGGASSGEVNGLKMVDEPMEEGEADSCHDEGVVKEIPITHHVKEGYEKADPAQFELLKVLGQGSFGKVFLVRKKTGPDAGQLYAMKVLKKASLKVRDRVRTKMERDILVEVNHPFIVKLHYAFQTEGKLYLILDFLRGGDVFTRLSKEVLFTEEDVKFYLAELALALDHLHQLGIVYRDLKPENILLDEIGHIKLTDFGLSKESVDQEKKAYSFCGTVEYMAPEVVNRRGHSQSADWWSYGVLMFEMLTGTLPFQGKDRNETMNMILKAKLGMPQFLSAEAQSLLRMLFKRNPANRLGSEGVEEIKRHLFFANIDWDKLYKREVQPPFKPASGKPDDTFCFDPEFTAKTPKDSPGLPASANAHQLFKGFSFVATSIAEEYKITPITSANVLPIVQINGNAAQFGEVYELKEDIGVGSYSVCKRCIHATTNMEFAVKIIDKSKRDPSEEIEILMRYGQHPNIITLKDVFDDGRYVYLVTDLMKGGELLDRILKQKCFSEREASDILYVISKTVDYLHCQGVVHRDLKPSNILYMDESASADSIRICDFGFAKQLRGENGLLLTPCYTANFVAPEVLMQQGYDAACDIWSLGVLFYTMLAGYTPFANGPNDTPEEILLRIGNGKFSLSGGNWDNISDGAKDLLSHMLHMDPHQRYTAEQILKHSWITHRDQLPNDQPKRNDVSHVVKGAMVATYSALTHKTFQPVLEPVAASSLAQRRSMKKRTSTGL
Chain of CDK6/cyclinD3(h) (Q00534 whole entry): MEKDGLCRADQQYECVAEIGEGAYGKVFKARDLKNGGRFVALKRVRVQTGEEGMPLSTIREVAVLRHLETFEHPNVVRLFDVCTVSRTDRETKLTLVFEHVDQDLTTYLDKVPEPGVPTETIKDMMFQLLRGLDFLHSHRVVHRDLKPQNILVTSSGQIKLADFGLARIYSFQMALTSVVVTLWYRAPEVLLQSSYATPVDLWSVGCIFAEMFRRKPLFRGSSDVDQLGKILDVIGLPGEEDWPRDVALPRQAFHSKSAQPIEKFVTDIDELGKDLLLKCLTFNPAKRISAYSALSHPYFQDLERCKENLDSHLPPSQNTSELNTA
Chain of CDK6/cyclinD3(h) (P30281 whole entry partner): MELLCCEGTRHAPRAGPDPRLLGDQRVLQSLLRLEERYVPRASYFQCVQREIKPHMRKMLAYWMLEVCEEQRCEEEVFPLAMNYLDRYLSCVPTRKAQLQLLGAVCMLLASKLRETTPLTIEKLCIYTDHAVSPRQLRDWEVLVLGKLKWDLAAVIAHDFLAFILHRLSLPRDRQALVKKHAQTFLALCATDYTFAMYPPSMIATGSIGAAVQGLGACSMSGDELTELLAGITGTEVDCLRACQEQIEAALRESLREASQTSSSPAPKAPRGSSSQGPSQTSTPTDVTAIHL

Sequence	Rsk4(h) % activity (Rsk4(h)) [%]	MELK(h) % activity (MELK(h)) [%]	CDK6/cyclinD3(h) % activity (CDK6/cyclinD3(h)) [%]	SAPK3(h) % activity (SAPK3(h)) [%]	CHK1(h) % activity (CHK1(h)) [%]	F1t4(h) % activity (F1t4(h)) [%]	IRAK4(h) % activity (IRAK4(h)) [%]	PKBβ(h) % activity (PKBβ(h)) [%]	Ron(h) % activity (Ron(h)) [%]	Itk(h) % activity (Itk(h)) [%]	TSSK1(h) % activity (TSSK1(h)) [%]
HRRIKAWLKKIKALARQLGVAA (Mammalian) [MMI-0500]	29	0	23	24	65	73	3	21	46	7	46
FAKLAARLYRKALARQLGVAA [MMI-0300]	90	16	86	84	91	83	59	84	93	77	79
YARAAARQARAKALNRQLGVA (Mammalian) [MMI-0200]	125	59	100	97			110	250	120	98	98
KAFAKLAARLYRKALARQLGVAA [MMI-0400]	91	17	85	79	87	89	59	98	79	63	79
